The text below walks through data of US20160237160A1, “ANTI-TWEAKR ANTIBODIES AND USES THEREOF” (BAYER PHARMA AKTIENGESELLSCHAFT, priority 2013, published 2016).

Data set [1] has as its system HT-29 cells. Nature of the data set: Caspase 3/7 activation. The data set is classed as cell-based, human. To be noted: 100 μg/ml antibody or 300 ng/ml TWEAK, 24 h, IFN gamma. On the procedure: (§1) To determine the level of apoptosis induction, Caspase-3/7 activation was measured after treatment of cancer cells with TWEAK or agonistic anti-TWEAKR antibodies. Therefore HT-29 cells were plated at a density of 4000 cells/75 μl/well in 96 well plates in assay medium (DMEM/Ham's F12, Biochrom #FG4815+10% FCS+100 ng/ml IFN gamma (R&D Systems #285-IF)). 24 h later cells were incubated with antibodies to the TWEAKR (see Table 24), recombinant human TWEAK (R&D, #1090-TW-025/CF, E. coli derived recombinant soluble human TWEAK, Arg93-His249 of accession # Q4ACW9, Entrez Gene ID 8742, with an N-terminal Met and 6-His tag) or corresponding isotype control IgG at various concentrations as indicated. After 24 h incubation with the antibodies, Caspase 3/7 activity was determined by adding 100 μl/well Caspase 3/7 Solution (Promega, #G8093) to the cells, incubation for one hour and reading of luminescence on a VICTOR V (Perkin Elmer).

Another data set has as its system NCI-H322 cells. The data set is described as follows: Caspase 3/7 activation. The class given is cell-based, human. The note with it: 100 μg/ml antibody or *100 ng/ml TWEAK, 48 h, IFN gamma. As to the method:
as §1
(§2) To determine whether the strong efficacy of the antibodies of the invention also holds true in other cell lines than HT-29, the capacity to induce Caspase 3/7 by anti-TWEAKR antibodies as compared to recombinant human TWEAK was evaluated in a panel of cell lines. For this analysis the following conditions were used: WiDr cells were plated at 3000 cells/well and incubated for 48 h in the presence of TWEAK or the described antibodies, A253 cells were plated at 2500 cells/well and incubated for 24 h, NCI-H322 cells were plated at 5000 cells/well and incubated for 48 h and 786-O cells were plated at 2500 cells/well and incubated for 48 h. The cells were plated in the media as described in Table 21, for A253, NCI-H322 and 786-O cells 100 ng/ml IFN gamma (R&D Systems #285-IF) was added. 24 h after plating antibodies at 100 μg/ml or TWEAK at 300 ng/ml (100 ng/ml TWEAK for NCI-H322 cells) were added and the cells were further incubated for the time periods indicated above. At the end of the incubation time Caspase 3/7 activity was determined as described for HT-29 cells. The fold induction of Caspase 3/7 was calculated as compared to untreated cells.

The test system of data set [2] is 786-O cells. The data set is described as follows: Caspase 3/7 activation. To be noted: 100 μg/ml antibody or 300 ng/ml TWEAK, 48 h, IFN gamma. The data set is classed as cell-based, human. As to the method:
as §1, §2

Data set [3] has as its system A253 cells. Nature of the data set: Caspase 3/7 activation. The data set is classed as cell-based, human. To be noted: 100 μg/ml antibody or 300 ng/ml TWEAK, 24 h, IFN gamma. On the procedure:
as §1, §2

For a further data set, the system named is WiDr cells. The data set is described as follows: Caspase 3/7 activation. The data set is classed as cell-based, human. The note with it: 100 μg/ml antibody or 300 ng/ml TWEAK, 48 h. On the procedure: as §1, §2
The next data set has as its target TWEAKR (Homo sapiens, UniProt Q9NP84). To be noted: published data; read-out: KD / binding affinity to TWEAKR (published); cited from earlier work.
For another data set, the system named is NCI-H1975 cells. Nature of the data set: Inhibition of proliferation (Cell Titer Glo). The data set is classed as cell-based, human. The note with it: 72h, 100 μg/ml antibody or *100 ng/ml TWEAK. As to the method:
(§3) Therefore cells were plated in 96well plates in 750 assay medium (growth media from Table 21, plus 100 ng/ml IFN gamma for 786-O cells) at the following cell numbers: WiDr cells 3000 cells/well, 786-O cells 2500 cells/well. 24 h later cells were incubated with anti-TWEAKR antibodies (see Table 26), recombinant human TWEAK or isotype control IgG (not shown) at the indicated concentrations (antibodies from 0.03-300 μg/ml, TWEAK 100 or 300 ng/ml). At the time of antibody addition cell viability was determined in sister plates (time point zero): therefore 750/well CTG solution (Promega Cell Titer Glo solution (catalog # G755B and G756B) was added to the cells, incubated for 10 minutes and luminescence was read on a Victor V (Perkin Elmer). 96 h after incubation with the agents, cell viability was determined in the assay plates by addition of 100 μl/well CTG solution, 10 min incubation and reading of luminescence. Proliferation in control wells was calculated by subtracting time zero values from the luminescence values in the untreated control wells. % of cell proliferation was calculated in the compound treated wells as compared to the untreated control wells.
(§4) To evaluate, whether this strong anti-proliferative activity can also be observed in a broader cell panel, in addition LOVO, NCI-H1975, SW-480 (all 3000 cells/well), HT-29 (4000 cells/well), A253 and SK-OV3 (both 2500 cells/well) cells were incubated with 100 μg/ml anti-TWEAKR antibodies or TWEAK ligand for the time periods as indicated in Table 27. All cells were seeded in the growth media indicated in Table 21 and for all cells except for WiDr cells 100 ng/ml IFNgamma was added to the assay medium when seeding the cells. The percentage of growth inhibition for treated cells as compared to proliferation in untreated control cells was measured and calculated as described above. As shown in Table 27 the antibodies of the current invention are more efficacious as compared to other known antibodies in inhibiting proliferation of various cancer cell lines at 100 μg/ml. In most experiments the antibodies of the current invention also show equal or stronger efficacy as compared to 100-300 ng/ml TWEAK ligand. Thus, the antibodies described in this invention are unique in their activity to induce apoptosis and proliferation inhibition in a broad panel of cancer cell lines.

Another data set relates to Lovo cells. The data set is described as follows: Inhibition of proliferation (Cell Titer Glo). To be noted: 72h, 100 μg/ml antibody or *100 ng/ml TWEAK. The data set is classed as cell-based, human. As to the method: as §3, §4
A general note: In ATP-based viability assays light output follows the ATP content of the culture.

For data set [4], the system named is HT-29 cells. The data set is described as follows: Inhibition of proliferation (Cell Titer Glo). The class given is cell-based, human. To be noted: 24h, 100 μg/ml antibody or **300 ng/ml TWEAK. On the procedure:
as §3, §4

For the next data set, the system named is SW480 cells. Nature of the data set: Inhibition of proliferation (Cell Titer Glo). The class given is cell-based, human. The note with it: 72h, 100 μg/ml antibody or *100 ng/ml TWEAK. On the procedure:
as §3, §4

For data set [5], the system named is 786-O cells. Nature of the data set: Inhibition of proliferation (Cell Titer Glo). The class given is cell-based, human. To be noted: 96h, 100 μg/ml antibody or *100 ng/ml TWEAK. As to the method:
as §3, §4

The subject of data set [6] is A253 cells. Nature of the data set: Inhibition of proliferation (Cell Titer Glo). The data set is classed as cell-based, human. The note with it: 72h, 100 μg/ml antibody or **300 ng/ml TWEAK. On the procedure: as §3, §4

Marks after values point to notes of the source that are not given here.

B1: TWEAK: endogenous TWEAKR ligand; E. coli derived recombinant soluble human TWEAK, Arg93-His249 (R&D #1090-TW-025/CF) (protein, UniProt O43508 93-249, looked up, fragment)
chain: RSAPKGRKTRARRAIAAHYEVHPRPGQDGAQAGVDGTVSGWEEARINSSSPLRYNRQIGEFIVTRAGLYYLYCQVHFDEGKAVYLKLDLLVDGVLALRCLEEFSATAASSLGPQLRLCQVSGLLALRPGSSLRIRTLPWAHLKAAPFLTYFGLFQVH
Regarding B1, the “Fold induction of Caspase 3/7” value came to 2.31 ± 0.29 in the data set on HT-29 cells [1]; 1.39 ± 0.01 in the data set with NCI-H322 cells; 1.45 ± 0.05 in the data set on 786-O cells [2]; 1.53 ± 0.13 with A253 cells [3]; 1.22 ± 0.02 with WiDr cells. Besides, the Kd with TWEAKR is 0.8 to 2.4 nM. Also, the “% Inhibition of proliferation” value in the data set on NCI-H1975 cells is given as 56%*; with Lovo cells, 53%*; in the data set with HT-29 cells [4], 98%**; with SW480 cells it was 0%*; in the data set on 786-O cells [5], 12%*; in the data set on A253 cells [6], greater than 100%**.
